Reference: patent US20220041658A1 (PROTAGONIST THERAPEUTICS, published 2022)
Positions of bridges follow the written chain, without caps; N, C: chain ends. Non-standard residues stand in square brackets, D forms with d. Trp(7-Me) = Cc1cccc2c(C[C@H](N)C(=O)O)c[nH]c12; 2Nal = N[C@@H](Cc1ccc2ccccc2c1)C(=O)O; d2Nal = N[C@H](Cc1ccc2ccccc2c1)C(=O)O; AEF = NCCOc1ccc(C[C@H](N)C(=O)O)cc1; αMeF = C[C@](N)(Cc1ccccc1)C(=O)O; Cit = NC(=O)NCCC[C@H](N)C(=O)O; Pen = CC(C)(S)[C@H](N)C(=O)O; αMeK = C[C@](N)(CCCCN)C(=O)O; Abu = CC[C@H](N)C(=O)O; Aib = CC(C)(N)C(=O)O; Sar = CNCC(=O)O

T1: interleukin-23 receptor (IL-23R) (human, UniProt Q5VWK5 24-629)
T1 sequence (looked up): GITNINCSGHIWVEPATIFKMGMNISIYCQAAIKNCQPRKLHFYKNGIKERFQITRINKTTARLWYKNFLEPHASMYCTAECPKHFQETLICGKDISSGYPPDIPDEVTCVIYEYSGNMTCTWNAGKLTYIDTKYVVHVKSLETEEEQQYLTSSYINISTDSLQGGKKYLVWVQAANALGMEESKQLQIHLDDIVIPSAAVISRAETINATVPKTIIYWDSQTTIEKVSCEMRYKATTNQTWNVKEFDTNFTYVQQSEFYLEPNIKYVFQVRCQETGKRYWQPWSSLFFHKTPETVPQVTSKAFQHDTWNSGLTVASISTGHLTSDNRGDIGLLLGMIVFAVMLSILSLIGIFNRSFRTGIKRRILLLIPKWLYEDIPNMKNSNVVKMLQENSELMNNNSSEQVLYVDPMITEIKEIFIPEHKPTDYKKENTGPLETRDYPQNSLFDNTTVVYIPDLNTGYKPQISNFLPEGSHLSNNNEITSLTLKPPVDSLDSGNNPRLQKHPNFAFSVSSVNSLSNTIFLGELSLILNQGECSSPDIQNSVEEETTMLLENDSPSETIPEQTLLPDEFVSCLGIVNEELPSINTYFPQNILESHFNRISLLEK


Molecular target: T1, interleukin-23 receptor (IL-23R)
Assay: cell-based or functional assay

Row | pStat3 HTRF IC50 [nM] | Binder
1 | 0.639 | Ac-[Pen]NT[Trp(7-Me)][Cit][Pen][AEF][2Nal][αMeK]K(Ac)N[Aib][dR]-NH2 (disulfide 1-6 (inferred)) [Peptide of SEQ ID NO: 345]
2 | 0.664 | Ac-[Pen]NT[Trp(7-Me)][Cit][Pen][AEF][2Nal][αMeK]K(Ac)N[Aib]A-NH2 (disulfide 1-6 (inferred)) [Peptide of SEQ ID NO: 342]
3 | 5.02 | Ac-[Pen]NT[Trp(7-Me)][Cit][Pen][AEF][2Nal][αMeK]K(Ac)N[Aib][d2Nal]-NH2 (disulfide 1-6 (inferred)) [Peptide of SEQ ID NO: 348]
4 | 6.3 | Ac-[Pen]NT[Trp(7-Me)][Cit][Pen][AEF][2Nal][αMeK]K(Ac)N[Sar]-NH2 (disulfide 1-6 (inferred)) [Peptide of SEQ ID NO: 339]
5 | 0.77 | Ac-[Pen]GT[Trp(7-Me)]K(Ac)[Pen][AEF][2Nal][αMeK]K(Ac)N[dL]-NH2 (disulfide 1-6 (inferred)) [Peptide of SEQ ID NO: 329]
6 | 1.06 | Ac-[Pen]LT[Trp(7-Me)]K(Ac)[Pen][AEF][2Nal][αMeK]K(Ac)N[dL]-NH2 (disulfide 1-6 (inferred)) [Peptide of SEQ ID NO: 332]
7 | 1.45 | XNTXKXXXXKNL (Ac-[Pen]-NT-[W(7-Me)]-[Lys(Ac)]-[Pen]-Phe[4-(2-aminoethoxy)]-[2-Nal]-[a-MeLys]-[Lys(Ac)]-N-L-NH2; Pen-Pen disulfide) [Peptide of SEQ ID NO: 244]
8 | 12.7 | Ac-[dR][Abu]QT[Trp(7-Me)]K(Ac)C[AEF][2Nal][αMeK]K(Ac)N[αMeF]-NH2 (thioether 2-7 (inferred)) [Peptide of SEQ ID NO: 327]
9 | 9.3 | Ac-[Pen]PT[Trp(7-Me)]K(Ac)[Pen][AEF][2Nal][αMeK]K(Ac)N[dL]-NH2 (disulfide 1-6 (inferred)) [Peptide of SEQ ID NO: 333]
10 | 0.78 | Ac-[Pen]AT[Trp(7-Me)]K(Ac)[Pen][AEF][2Nal][αMeK]K(Ac)N[dL]-NH2 (disulfide 1-6 (inferred)) [Peptide of SEQ ID NO: 328]

Second part, the binder before the results:

Row | Binder | pStat3 HTRF IC50 [nM]
11 | XNTXKXXXXKNX (Ac-[Pen]-NT-[W(7-Me)]-[Lys(Ac)]-[Pen]-Phe[4-(2-aminoethoxy)]-[2-Nal]-[a-MeLys]-[Lys(Ac)]-N-[NMeArg]-NH2; Pen-Pen disulfide) [Peptide of SEQ ID NO: 246] | 4.83
12 | XNTXQXXXXKNX (Ac-[Pen]-NT-[W(6-Cl)]-Q-[Pen]-Phe[4-(2-aminoethoxy)]-[2-Nal]-[a-MeLys]-[Lys(Ac)]-N-[bA]-NH2; Pen-Pen disulfide) [Peptide of SEQ ID NO: 228] | 25.7
13 | XNTXQXXXXGPX (Ac-[Pen]-NT-[W(7-Me)]-Q-[Pen]-Phe[4-(2-aminoethoxy)]-[2-Nal]-[a-MeLeu]-G-[(D)Pro]-[bA]-NH2; Pen-Pen disulfide) [Peptide of SEQ ID NO: 220] | 195
14 | XNTXQXXXXKNX (Ac-[Pen]-NT-[W(4-Me)]-Q-[Pen]-Phe[4-(2-aminoethoxy)]-[2-Nal]-[a-MeLys]-[Lys(Ac)]-N-[bA]-NH2; Pen-Pen disulfide) [Peptide of SEQ ID NO: 231] | 5.85
15 | Ac-[Pen]NT[Trp(7-Me)][Cit][Pen][AEF][2Nal][αMeK]K(Ac)N[Aib]G-NH2 (disulfide 1-6 (inferred)) [Peptide of SEQ ID NO: 341] | 0.934
16 | Ac-[Pen]K(Ac)T[Trp(7-Me)]K(Ac)[Pen][AEF][2Nal][αMeK]K(Ac)N[dL]-NH2 (disulfide 1-6 (inferred)) [Peptide of SEQ ID NO: 330] | 1.38
17 | Ac-[Pen]NT[Trp(7-Me)][Cit][Pen][AEF][2Nal][αMeK]K(Ac)N[Aib][dY]-NH2 (disulfide 1-6 (inferred)) [Peptide of SEQ ID NO: 347] | 0.637
18 | Ac-[Pen][Cit]T[Trp(7-Me)]K(Ac)[Pen][AEF][2Nal][αMeK]K(Ac)N[dL]-NH2 (disulfide 1-6 (inferred)) [Peptide of SEQ ID NO: 331] | 0.834
19 | Ac-[Pen]RT[Trp(7-Me)]K(Ac)[Pen][AEF][2Nal][αMeK]K(Ac)N[dL]-NH2 (disulfide 1-6 (inferred)) [Peptide of SEQ ID NO: 336] | 1.49
20 | XNTXKXXXXKNX (Ac-[Pen]-NT-[W(7-Me)]-[Lys(Ac)]-[Pen]-Phe[4-(2-aminoethoxy)]-[2-Nal]-[a-MeLys]-[Lys(Ac)]-N-[Cit]-NH2; Pen-Pen disulfide) [Peptide of SEQ ID NO: 249] | 0.639
21 | XNTXQXXXXKNX (Ac-[Pen]-NT-[W(4-OMe)]-Q-[Pen]-Phe[4-(2-aminoethoxy)]-[2-Nal]-[a-MeLys]-[Lys(Ac)]-N-[bA]-NH2; Pen-Pen disulfide) [Peptide of SEQ ID NO: 229] | 23.1
22 | XNTXKXXXXKNP (Ac-[Pen]-NT-[W(7-Me)]-[Lys(Ac)]-[Pen]-Phe[4-(2-aminoethoxy)]-[2-Nal]-[a-MeLys]-[Lys(Ac)]-N-P-NH2; Pen-Pen disulfide) [Peptide of SEQ ID NO: 253] | 1.44
